Residue numbers refer to the chain shown, from its start.
B1: H1H5801B (antibody, human IgG1, V domains shown)
VH: QVQLVQSGGGVVQPGGSLRLSCAASGFTFDDYAMHWVRQAPGKGLEWVSLISGDGGSTYYADSVKGRFTISRDNSKNSLYLQMNSLRTEDTALYYCAKDDSSSSWYYYYYGMDVWGRGTTVTVSS
VL: DIQMTQSPSSLSASVGDRVTITCRASQRISSYLNWYQQKPGKAPKVLISVASSLQSGVPSRFSGSGSGTDFTLTISSLQPEDFASYYCQQSYNTPLTFGGGTKVEIKR
notes: H1H: human IgG1 Fc; divalent
B2: H1H7242P (monovalent 1-arm) (antibody, human IgG1, V domains shown)
VH: EVQLVESGGGLVQPGRSLRLSCAASGFTFDDYTMHWVRQGPGKGLEWVSDIGWNSNSIGYADSVKGRFTISRDNAKNSLYLQMNSLRPEDTALYFCVKDKSGYGKFFIGLDVWGQGTMVTVSS
VL: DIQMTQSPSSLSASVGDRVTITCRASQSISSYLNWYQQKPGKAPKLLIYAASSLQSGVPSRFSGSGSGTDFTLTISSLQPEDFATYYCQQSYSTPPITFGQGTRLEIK
notes: Monovalent 1-arm: second Fab removed, only the Fc portion (CH2-CH3) expressed; human IgG1 Fc; tied by numerical identifier; also called H1H7242B
B3: H1H7250P (monovalent 1-arm) (antibody, human IgG1, V domains shown)
VH: B2 VH with E1Q, S57T, I58K
VL: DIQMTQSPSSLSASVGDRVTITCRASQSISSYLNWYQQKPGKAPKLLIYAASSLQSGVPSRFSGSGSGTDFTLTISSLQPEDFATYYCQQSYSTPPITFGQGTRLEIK
notes: Monovalent 1-arm: second Fab removed, only the Fc portion (CH2-CH3) expressed; human IgG1 Fc; tied by numerical identifier; also called H1H7250B
B4: H1H7251P (monovalent 1-arm) (antibody, human IgG1, V domains shown)
VH: EVQLVESGGGLVQPGRSLRLSCAASGFTFADYTMHWVRQGPGTGLEWVSDIGWSGGSLGYADSVKGRFTISRDNAKNSLYLEMNNLRPEDTALYYCVKDKSGYGKFQYGLDVWGQGTTVTVSS
VL: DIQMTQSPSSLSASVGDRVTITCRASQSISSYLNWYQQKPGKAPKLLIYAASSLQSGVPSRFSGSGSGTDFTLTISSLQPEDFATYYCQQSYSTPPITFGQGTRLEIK
notes: Monovalent 1-arm: second Fab removed, only the Fc portion (CH2-CH3) expressed; human IgG1 Fc; tied by numerical identifier; also called H1H7251B
B5: H1H7241P (monovalent 1-arm) (antibody, human IgG1, V domains shown)
VH: B2 VH with D30A, S57T, T69A, F95Y, F107Q, I108Y, M118T
VL: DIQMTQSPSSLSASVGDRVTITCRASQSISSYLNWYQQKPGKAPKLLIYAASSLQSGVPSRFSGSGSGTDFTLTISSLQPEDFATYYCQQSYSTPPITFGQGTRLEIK
notes: Monovalent 1-arm: second Fab removed, only the Fc portion (CH2-CH3) expressed; human IgG1 Fc; tied by numerical identifier; also called H1H7241B
B6: H1H7254P (monovalent 1-arm) (antibody, human IgG1, V domains shown)
VH: B2 VH with L11V, T28K, D31G, S57T
VL: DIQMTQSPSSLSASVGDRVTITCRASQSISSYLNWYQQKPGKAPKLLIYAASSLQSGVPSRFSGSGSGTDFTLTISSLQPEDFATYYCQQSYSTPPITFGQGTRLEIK
notes: Monovalent 1-arm: second Fab removed, only the Fc portion (CH2-CH3) expressed; human IgG1 Fc; tied by numerical identifier; also called H1H7254B
B7: H1H7226P (monovalent 1-arm) (antibody, human IgG1, V domains shown)
VH: EVQLVQSGGGLVQPGRSLRLSCAASGFTFSDYTMHWVRQGPGKGLEWVSDISWNSGSKGYTDSVKGRFTISRDNAKKSLYLQMNSLRAEDTALYYCVKDGSGYGKYHFYAMDVWGQGTLVTVSS
VL: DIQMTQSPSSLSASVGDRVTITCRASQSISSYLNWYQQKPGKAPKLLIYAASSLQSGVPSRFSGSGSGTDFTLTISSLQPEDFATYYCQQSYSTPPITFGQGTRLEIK
notes: Monovalent 1-arm: second Fab removed, only the Fc portion (CH2-CH3) expressed; human IgG1 Fc; tied by numerical identifier; also called H1H7226B
B8: H1H7203P (monovalent 1-arm) (antibody, human IgG1, V domains shown)
VH: EVQLVQSGGGLVQPGRSLRLSCAASGFTFADYTMHWVRQTPGKGLEWVSGISWNSGSKDYADSVKGRFTISRDNAKNSLYLQMNSLRTEDTALYYCAKYGSGYGRYFFYAMDVWGQGTTVTVSS
VL: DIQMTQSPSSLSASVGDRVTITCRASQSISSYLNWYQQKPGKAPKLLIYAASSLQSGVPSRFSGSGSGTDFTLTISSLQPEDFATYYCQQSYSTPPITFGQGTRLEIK
notes: Monovalent 1-arm: second Fab removed, only the Fc portion (CH2-CH3) expressed; human IgG1 Fc; tied by numerical identifier; also called H1H7203B
B9: H1H7211P (monovalent 1-arm) (antibody, human IgG1, V domains shown)
VH: EVQLVESGGGLVHPGRSLRLSCTASGFKFADYTMHWVRQAPGKGLEWVSDISWNSGSKGYADSVKGRFTISRDNDKNSLYLQMNSLRGEDTALYYCAKDGSGYGRFHFYAIDVWGQGTTVTVSS
VL: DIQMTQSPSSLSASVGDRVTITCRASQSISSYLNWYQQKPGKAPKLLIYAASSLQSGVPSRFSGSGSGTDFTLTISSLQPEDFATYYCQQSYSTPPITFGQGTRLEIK
notes: Monovalent 1-arm: second Fab removed, only the Fc portion (CH2-CH3) expressed; human IgG1 Fc; tied by numerical identifier; also called H1H7211B
B10: H1H7196P (monovalent 1-arm) (antibody, human IgG1, V domains shown)
VH: EVQLVESGGGMVQPGRSLRLSCAASGFPFNDYTMHWVRQVPGRGLEWVSDISWNSGSKGYADSVKGRFIISRDNAKNSLYLQMNSLRVEDTALYYCVKDGSGYGRFHYYAMDVWGQGTTVTVSS
VL: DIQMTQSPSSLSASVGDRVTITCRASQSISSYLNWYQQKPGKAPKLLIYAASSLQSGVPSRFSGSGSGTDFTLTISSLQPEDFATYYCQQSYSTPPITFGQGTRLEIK
notes: Monovalent 1-arm: second Fab removed, only the Fc portion (CH2-CH3) expressed; human IgG1 Fc; tied by numerical identifier; also called H1H7196B
B11: H1H7204P (monovalent 1-arm) (antibody, human IgG1, V domains shown)
VH: EVQLVESRGALVQPGRSLRLSCAASGFAFNDYTMHWVRQAPGKGLEWVSDISWNSNSKDYADSVKGRFTISRDNAKNSLYLQMNSLRAEDTALYYCVKDGSGYGKFSLYALDVWGQGTTVTVSS
VL: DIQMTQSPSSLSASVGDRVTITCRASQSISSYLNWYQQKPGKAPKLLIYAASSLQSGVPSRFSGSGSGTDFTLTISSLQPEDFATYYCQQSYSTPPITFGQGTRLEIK
notes: Monovalent 1-arm: second Fab removed, only the Fc portion (CH2-CH3) expressed; human IgG1 Fc; tied by numerical identifier; also called H1H7204B
B12: H1H7232P (monovalent 1-arm) (antibody, human IgG1, V domains shown)
VH: EVQLVESGGGLVHPGRSLRLSCAASGFTFDDYTMHWVRQAPGKGLEWVSDISWNSGSRGYADSVKGRFTISRDNAENSLYLQMNSLRAEDTALYYCAKDKSGYGHYYYYAMDVWGQGTTVTVSS
VL: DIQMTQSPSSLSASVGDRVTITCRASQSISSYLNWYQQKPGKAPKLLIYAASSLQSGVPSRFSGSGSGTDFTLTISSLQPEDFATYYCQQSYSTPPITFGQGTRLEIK
notes: Monovalent 1-arm: second Fab removed, only the Fc portion (CH2-CH3) expressed; human IgG1 Fc; tied by numerical identifier; also called H1H7232B
B13: H1H7198P (monovalent 1-arm) (antibody, human IgG1, V domains shown)
VH: B8 VH with Q6E, T40V, G50D, S78F, T88A, A97V, R105K, Y106F, F107Y
VL: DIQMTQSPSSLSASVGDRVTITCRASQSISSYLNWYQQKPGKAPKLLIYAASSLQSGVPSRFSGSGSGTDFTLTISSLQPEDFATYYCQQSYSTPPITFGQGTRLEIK
notes: Monovalent 1-arm: second Fab removed, only the Fc portion (CH2-CH3) expressed; human IgG1 Fc; tied by numerical identifier; also called H1H7198B
B14: H1H7221P (monovalent 1-arm) (antibody, human IgG1, V domains shown)
VH: EVQLVESGGGLVQPGRSLRLSCVASGFTFDDYSMHWVRQAPGKGLEWVSGISWNSGSKDYADSVKGRFTISRDNAKNSLYLQMNSLRAEDTALYYCAKYGSGYGKFYHYGLDVWGQGTTVTVSS
VL: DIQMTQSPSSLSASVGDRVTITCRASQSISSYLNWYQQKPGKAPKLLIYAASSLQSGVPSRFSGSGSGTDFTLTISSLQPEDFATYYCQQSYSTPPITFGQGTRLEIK
notes: Monovalent 1-arm: second Fab removed, only the Fc portion (CH2-CH3) expressed; human IgG1 Fc; tied by numerical identifier; also called H1H7221B
B15: H1H7223P (monovalent 1-arm) (antibody, human IgG1, V domains shown)
VH: B8 VH with E1Q, Q6E, T40A, G50D, K58M, D59G, N77K, Y99D, R105K
VL: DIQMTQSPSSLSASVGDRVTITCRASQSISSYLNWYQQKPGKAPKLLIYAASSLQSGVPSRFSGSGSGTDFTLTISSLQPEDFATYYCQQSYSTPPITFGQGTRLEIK
notes: Monovalent 1-arm: second Fab removed, only the Fc portion (CH2-CH3) expressed; human IgG1 Fc; tied by numerical identifier; also called H1H7223B
B16: H1H7194P (monovalent 1-arm) (antibody, human IgG1, V domains shown)
VH: EVQLVESGGGLVQPGRSLRLSCAASGFTFGDYTMHWVRQAPGKGLEWVSDISWNSGSKDYADSVKGRFTISRDNAKNSLYLQMNSLRTEDTAFYYCAKDSRGYGLYYHLGLDVWGQGTTVTVSS
VL: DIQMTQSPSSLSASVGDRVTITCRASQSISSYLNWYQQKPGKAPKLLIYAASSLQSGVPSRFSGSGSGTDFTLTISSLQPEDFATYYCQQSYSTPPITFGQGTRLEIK
notes: Monovalent 1-arm: second Fab removed, only the Fc portion (CH2-CH3) expressed; human IgG1 Fc; tied by numerical identifier; also called H1H7194B
B17: H1H7195P (monovalent 1-arm) (antibody, human IgG1, V domains shown)
VH: B16 VH with G30A, K58I, D59A, L105H, Y107K, H108Y
VL: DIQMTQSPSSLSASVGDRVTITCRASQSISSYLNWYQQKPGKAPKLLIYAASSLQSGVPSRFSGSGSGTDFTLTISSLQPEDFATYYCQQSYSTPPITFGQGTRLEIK
notes: Monovalent 1-arm: second Fab removed, only the Fc portion (CH2-CH3) expressed; human IgG1 Fc; tied by numerical identifier; also called H1H7195B
B18: H1H7233P (monovalent 1-arm) (antibody, human IgG1, V domains shown)
VH: EVQLVESGGGLVQPGGSLRLSCEASGFTFADYTLHWVRQAPGKGLEWVSDISWNSGTRGYADSVRGRFTISRDNAKKSLYLQMNSLRSEDTALYYCVKDGSGYGRYNFYAMDVWGQGTTVTVSS
VL: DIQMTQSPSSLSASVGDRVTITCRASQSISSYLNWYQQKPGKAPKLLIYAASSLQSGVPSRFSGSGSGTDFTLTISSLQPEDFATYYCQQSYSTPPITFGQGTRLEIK
notes: Monovalent 1-arm: second Fab removed, only the Fc portion (CH2-CH3) expressed; human IgG1 Fc; tied by numerical identifier; also called H1H7233B
B19: H1xH7221G5 (monovalent 1-arm) (antibody, V domains shown)
VH: B14 VH with V23A, K58I, D59G, Y99D, H108Y, L111M
VL: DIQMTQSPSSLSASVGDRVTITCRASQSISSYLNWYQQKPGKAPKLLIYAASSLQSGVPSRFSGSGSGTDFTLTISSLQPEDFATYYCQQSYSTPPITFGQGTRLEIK
notes: Monovalent 1-arm: second Fab removed, only the Fc portion (CH2-CH3) expressed; prefix H1xH not explained
B20: H1xH7221G3 (monovalent 1-arm) (antibody, V domains shown)
VH: B14 VH with V23A, K58I, D59G, Y99D, K105Y, H108Y, L111M
VL: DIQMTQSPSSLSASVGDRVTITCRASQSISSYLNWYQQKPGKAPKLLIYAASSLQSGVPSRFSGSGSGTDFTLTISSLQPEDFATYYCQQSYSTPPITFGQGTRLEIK
notes: as for B19

Molecular target: T1, Soluble heterodimeric CD3 protein (hCD3-epsilon/hCD3-delta) with either a human Fc tag (hFcΔAdp/hFc) or a … (human, UniProt P07766 23-126; P04234 22-105)
T1 construct: also called hCD3ε/δ; not shown: Fc tag: human (hFcΔAdp/hFc)
Assay: SPR Biacore 25C antigen-capture
Outline: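 Rate constants fitted to a 1:1 model, giving KD as kd/ka and dissociative half-life as ln2/(60·kd) minutes. Antibodies flowed over CD3ε/δ heterodimer captured on anti-human or anti-mouse Fc surfaces, run on a Biacore T200 at 25 °C.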

T1 sequence (P07766 23-126 limits assumed, stated change not applied, chain 1 of 2): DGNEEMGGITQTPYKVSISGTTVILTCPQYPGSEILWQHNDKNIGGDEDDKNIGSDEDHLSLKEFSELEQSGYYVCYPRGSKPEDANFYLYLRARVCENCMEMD
T1 sequence (P04234 22-105 limits assumed, stated change not applied, chain 2 of 2): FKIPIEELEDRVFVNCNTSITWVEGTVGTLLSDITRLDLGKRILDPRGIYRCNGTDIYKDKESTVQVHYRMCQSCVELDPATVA

Kd [nM]	T½ [min]	koff [s⁻¹]	kon [M⁻¹ s⁻¹]	Binder
3.38	10	0.00112	331000	B1

Molecular target: T1, Soluble heterodimeric CD3 protein …
Assay: SPR Biacore 25C antibody-capture
Description: Measurements were conducted on a T200 Biacore™ instrument.
(§1) Soluble heterodimeric CD3 protein (hCD3-epsilon/hCD3-delta; SEQ ID NOs:1652/1653) with either a human Fc tag (hFcΔAdp/hFc; SEQ ID NOs:1683/1684) or a mouse Fc tag (mFcΔAdp/mFc; SEQ ID NOs:1685/1686) was injected over the antibody captured surface and the binding response was recorded. Heterodimeric CD3 protein was purified using the method described in Davis et al. (US2010/0331527).
(§2) Kinetic association (kₐ) and dissociation (kd) rate constants were determined by processing and fitting the data to a 1:1 binding model using Scrubber 2.0 curve fitting software. Binding dissociation equilibrium constants (KD) and dissociative half-lives (t₁₁₂) were calculated from the kinetic rate constants as: KD (M)=kd/kₐ; and t_{1/2} (min)=(ln 2/(60*kd). NT=not tested; NB=no binding observed.

Kd [nM]	T½ [min]	koff [s⁻¹]	kon [M⁻¹ s⁻¹]	Binder
246	7	0.00162	6570	B1

Molecular target: T1, Soluble heterodimeric CD3 protein …
Assay: SPR Biacore 25C antigen-capture, 1-arm
Description: In the antigen-capture format, heterodimeric CD3 protein was captured using a rabbit anti-mouse Fc or mouse anti-human Fc and the respective antibodies were injected over the captured antigen.
as §2

Kd [nM]	T½ [min]	koff [s⁻¹]	kon [M⁻¹ s⁻¹]	Binder
2.63	11	0.00101	383000	B2
0.82	61	0.000189	231000	B3
2.67	10	0.00119	447000	B4
1.26	49	0.000236	187000	B5
0.762	35	0.00033	433000	B6
0.565	49	0.000236	418000	B7
0.498	48	0.000238	479000	B8
0.279	120	9.61e-05	345000	B9
2.49	25	0.000461	185000	B10
2.12	32	0.000365	173000	B11
10	8	0.00149	149000	B12
0.112	163	7.07e-05	628000	B13
1.75	48	0.000239	136000	B14
1.53	40	0.000286	187000	B15
0.241	137	8.43e-05	350000	B16
0.126	162	7.14e-05	566000	B17
1.27	57	0.000204	161000	B18

Molecular target: T1, Soluble heterodimeric CD3 protein …
Assay: SPR Biacore 25C antibody-capture, 1-arm
Description: as §1, §2

Kd [nM]	T½ [min]	koff [s⁻¹]	kon [M⁻¹ s⁻¹]	binding result	Binder
30.9	17	0.000664	21500		B2
10.5	47	0.000247	23400		B3
41.7	11	0.00107	25600		B4
22	39	0.000295	13400		B5
14.9	30	0.000388	26000		B6
27.2	33	0.000355	13000		B7
18.3	43	0.000267	14600		B8
11.3	73	0.000159	14100		B9
41.3	26	0.000443	10700		B10
25.3	32	0.000362	14300		B11
				no binding	B19
220	7	0.00177	8030		B12
6.02	73	0.000158	26300		B13
27.5	40	0.000292	10700		B14
				no binding	B20
19.2	38	0.000307	16000		B15
13	76	0.000151	11600		B16
3.16	117	9.89e-05	31300		B17
24.2	43	0.000269	11100		B18

Reference: patent publication US20190127480A1 (Regeneron, published 2019)
